In US20190359687A1 (Bayer, published 2019):

T1: glycophorin A peptide GP5 (human, biotin at the N-terminus)
T1 construct: Residues 42 to 61 of the human glycophorin A extracellular domain
T1 peptide: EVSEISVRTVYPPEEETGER

T2: human glycophorin A on human red blood cells (human, UniProt P02724 20-150)
T2 construct: whole, on cells; also called human GPA; huGPA
T2 sequence (looked up): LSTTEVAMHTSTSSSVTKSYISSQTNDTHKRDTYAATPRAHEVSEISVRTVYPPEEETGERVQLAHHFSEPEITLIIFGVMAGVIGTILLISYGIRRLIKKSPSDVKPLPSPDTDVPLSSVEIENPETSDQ


Tests used:
[1] = molecular target: T3, Cynomolgus monkey glycophorin A on Cynomolgus monkey red blood cells (Cynomolgus monkey); test: partition to Cyno RBC, human HemA plasma, 120 min;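 note: FVIII fusion spiked at 1 IU/mL into RBC suspension at whole-blood density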
T3 construct: whole, on cells; also called Cyno GPA; Cyno RBC

[2] = molecular target: T3, Cynomolgus monkey glycophorin A on …; test: partition to Cyno RBC, human HemA plasma, 1 min;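 note: FVIII fusion spiked at 1 IU/mL into RBC suspension at whole-blood density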
Description: (§1) To evaluate partition to cynomolgus monkey or human red blood cells, whole blood was draw from Cynomolgus monkey or normal human volunteers in to anticoagulant with 4% sodium citrate (Sigma, St Louis, Mo.). The red blood cells were purified by layering the whole blood on to ficoll followed by low speed centrifugation. The supernatant containing plasma, platelets and white blood cells was discarded and the red blood cell pellet was resuspended in 10 pellet volumes of PBS (50 mM Phosphate buffer, pH7.4, 150 mM NaCl). The red blood cells were then pelleted by slow speed centrifugation and the red blood cells re-suspended in 10 volumes of PBS. This washing step was repeated 4 more times and the red blood cells finally resuspended in a volume of plasma from Hemophilia patients with less than 1% of normal levels of FVIII (GeorgeKing Bio-Medical, Overland Park, Kans.) to generate a total volume equal to the initial blood volume such that the RBC density was equal to that of normal whole blood. BDD and RBC targeted FVIII molecules were then spiked into RBC suspension in HemA plasma at 1 IU/mL, and incubated at room temperature for 2-3 hours with gentle rotation. […] An additional control was performed in which BDD or RBC targeted FVIII molecules were added at 11U/ml into the same human hemophilia A plasma and incubated for 5 minutes and 180 mins. These samples were used to determine the input FVIII activity in the presence of plasma which was used to calculate the percentage of the molecule that was bound to RBC. All plasma samples were then assayed together for FVIII activity using the Coatest SP assay (DiaPharma, Columbus, Ohio). The assay was performed following the manufacturer's instructions in a 96-well plate format. […] The plate was incubated at 37° C. for 10 minutes with shaking between each reagent addition.

[3] = molecular target: T1, glycophorin A peptide GP5; test: Octet, GP5 peptide on the probe, fusion protein in solution, 1:1 fit
[4] = molecular target: T2, human glycophorin A on human red blood …; test: partition to human RBC, vWF deficient plasma, 30 min
[5] = molecular target: T2, human glycophorin A on human red blood …; test: partition to human RBC, vWF deficient plasma, 120 min
[6] = molecular target: T2, human glycophorin A on human red blood …; test: partition to human RBC, vWF deficient plasma, 15 min
[7] = molecular target: T3, Cynomolgus monkey glycophorin A on …; test: partition to Cyno RBC, human HemA plasma, 30 min;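 note: FVIII fusion spiked at 1 IU/mL into RBC suspension at whole-blood density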
Description: as §1

[8] = molecular target: T3, Cynomolgus monkey glycophorin A on …; test: partition to Cyno RBC, human HemA plasma, 15 min;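 note: FVIII fusion spiked at 1 IU/mL into RBC suspension at whole-blood density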
[9] = molecular target: T3, Cynomolgus monkey glycophorin A on …; test: partition to Cyno RBC, human HemA plasma, 5 min;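 note: FVIII fusion spiked at 1 IU/mL into RBC suspension at whole-blood density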
[10] = molecular target: T3, Cynomolgus monkey glycophorin A on …; test: partition to Cyno RBC, human HemA plasma, 60 min;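 note: FVIII fusion spiked at 1 IU/mL into RBC suspension at whole-blood density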
[11] = molecular target: T2, human glycophorin A on human red blood …; test: partition to human RBC, vWF deficient plasma, 1 min
[12] = molecular target: T2, human glycophorin A on human red blood …; test: partition to human RBC, vWF deficient plasma, 60 min
[13] = molecular target: T2, human glycophorin A on human red blood …; test: partition to human RBC, vWF deficient plasma, 5 min

| Binder | % bound to Cyno RBC [1] | % bound to Cyno RBC [2] | Kd [3] | koff [3] | kon [3] | percentage bound to human RBC [4] | percentage bound to human RBC [5] | percentage bound to human RBC [6] | % bound to Cyno RBC [7] | % bound to Cyno RBC [8] | % bound to Cyno RBC [9] | % bound to Cyno RBC [10] | percentage bound to human RBC [11] | percentage bound to human RBC [12] | percentage bound to human RBC [13] |
| --- | --- | --- | --- | --- | --- | --- | --- | --- | --- | --- | --- | --- | --- | --- | --- |
| TPP-8798 FVIII-scFv fusion protein (other, The entry is the mature protein; mostly a 2 chain molecule; also called BDD-N scFv; PPB 6705) DIQLTQSPSFLSASVGDRVTITCRASSSVRYIYWFQQKPGKAPKLLIYATSFRQSGVPSRFSGSGSGTEYTLTISSLQPEDFATYYCHQRNSFPYTFGQGTKLEIKGGGGSGGGGSGGGGSGGGGSEVQLVQSGAEVKKPGASVKVSCKASGYTFTTYAIHWVRQAPGQGLEWMGYINPSSGYTRYNPKFKGRVTMTRDKSTSTAYMELRSLRSDDTAVYYCWTGTRDYWGQGTTVTVSSGGGSGGGGSGLVPRGSGGGSGGGGSGATRRYYLGAVELSWDYMQSDLGELPVDARFPPRVPKSFPFNTSVVYKKTLFVEFTDHLFNIAKPRPPWMGLLGPTIQAEVYDTVVITLKNMASHPVSLHAVGVSYWKASEGAEYDDQTSQREKEDDKVFPGGSHTYVWQVLKENGPMASDPLCLTYSYLSHVDLVKDLNSGLIGALLVCREGSLAKEKTQTLHKFILLFAVFDEGKSWHSETKNSLMQDRDAASARAWPKMHTVNGYVNRSLPGLIGCHRKSVYWHVIGMGTTPEVHSIFLEGHTFLVRNHRQASLEISPITFLTAQTLLMDLGQFLLFCHISSHQHDGMEAYVKVDSCPEEPQLRMKNNEEAEDYDDDLTDSEMDVVRFDDDNSPSFIQIRSVAKKHPKTWVHYIAAEEEDWDYAPLVLAPDDRSYKSQYLNNGPQRIGRKYKKVRFMAYTDETFKTREAIQHESGILGPLLYGEVGDTLLIIFKNQASRPYNIYPHGITDVRPLYSRRLPKGVKHLKDFPILPGEIFKYKWTVTVEDGPTKSDPRCLTRYYSSFVNMERDLASGLIGPLLICYKESVDQRGNQIMSDKRNVILFSVFDENRSWYLTENIQRFLPNPAGVQLEDPEFQASNIMHSINGYVFDSLQLSVCLHEVAYWYILSIGAQTDFLSVFFSGYTFKHKMVYEDTLTLFPFSGETVFMSMENPGLWILGCHNSDFRNRGMTALLKVSSCDKNTGDYYEDSYEDISAYLLSKNNAIEPRSFSQNPPVLKRHQREITRTTLQSDQEEIDYDDTISVEMKKEDFDIYDEDENQSPRSFQKKTRHYFIAAVERLWDYGMSSSPHVLRNRAQSGSVPQFKKVVFQEFTDGSFTQPLYRGELNEHLGLLGPYIRAEVEDNIMVTFRNQASRPYSFYSSLISYEEDQRQGAEPRKNFVKPNETKTYFWKVQHHMAPTKDEFDCKAWAYFSDVDLEKDVHSGLIGPLLVCHTNTLNPAHGRQVTVQEFALFFTIFDETKSWYFTENMERNCRAPCNIQMEDPTFKENYRFHAINGYIMDTLPGLVMAQDQRIRWYLLSMGSNENIHSIHFSGHVFTVRKKEEYKMALYNLYPGVFETVEMLPSKAGIWRVECLIGEHLHAGMSTLFLVYSNKCQTPLGMASGHIRDFQITASGQYGQWAPKLARLHYSGSINAWSTKEPFSWIKVDLLAPMIIHGIKTQGARQKFSSLYISQFIIMYSLDGKKWQTYRGNSTGTLMVFFGNVDSSGIKHNIFNPPIIARYIRLHPTHYSIRSTLRMELMGCDLNSCSMPLGMESKAISDAQITASSYFTNMFATWSPSKARLHLQGRSNAWRPQVNNPKEWLQVDFQKTMKVTGVTTQGVKSLLTSMYVKEFLISSSQDGHQWTLFFQNGKVKVFQGNQDSFTPVVNSLDPPLLTRYLRIHPQSWVHQIALRMEVLGCEAQDLY | 2.9% | 0% | 4 nM | 0.00329 s⁻¹ | 823000 M⁻¹ s⁻¹ | 95.7% | 95.7% | 95.2% | -8.7% | -7.8% | -21.9% | -19.1% | 76.5% | 95.8% | 92.5% |
| TPP-9711 FVIII-scFv fusion protein (other, The entry is the mature protein; also called PPB 7816) ATRRYYLGAVELSWDYMQSDLGELPVDARFPPRVPKSFPFNTSVVYKKTLFVEFTDHLFNIAKPRPPWMGLLGPTIQAEVYDTVVITLKNMASHPVSLHAVGVSYWKASEGAEYDDQTSQREKEDDKVFPGGSHTYVWQVLKENGPMASDPLCLTYSYLSHVDLVKDLNSGLIGALLVCREGSLAKEKTQTLHKFILLFAVFDEGKSWHSETKNSLMQDRDAASARAWPKMHTVNGYVNRSLPGLIGCHRKSVYWHVIGMGTTPEVHSIFLEGHTFLVRNHRQASLEISPITFLTAQTLLMDLGQFLLFCHISSHQHDGMEAYVKVDSCPEEPQLRMKNNEEAEDYDDDLTDSEMDVVRFDDDNSPSFIQIRSVAKKHPKTWVHYIAAEEEDWDYAPLVLAPDDRSYKSQYLNNGPQRIGRKYKKVRFMAYTDETFKTREAIQHESGILGPLLYGEVGDTLLIIFKNQASRPYNIYPHGITDVRPLYSRRLPKGVKHLKDFPILPGEIFKYKWTVTVEDGPTKSDPRCLTRYYSSFVNMERDLASGLIGPLLICYKESVDQRGNQIMSDKRNVILFSVFDENRSWYLTENIQRFLPNPAGVQLEDPEFQASNIMHSINGYVFDSLQLSVCLHEVAYWYILSIGAQTDFLSVFFSGYTFKHKMVYEDTLTLFPFSGETVFMSMENPGLWILGCHNSDFRNRGMTALLKVSSCDKNTGDYYEDSYEDISAYLLSKNNAIEPRSFSQNGGGGSTGGTGGSSGGGTGSGGGGTGGSGGTDIQLTQSPSFLSASVGDRVTITCRASSSVRYIYWFQQKPGKAPKLLIYATSFRQSGVPSRFSGSGSGTEYTLTISSLQPEDFATYYCHQRNSFPYTFGQGTKLEIKGGGGSGGGGSGGGGSGGGGSEVQLVQSGAEVKKPGASVKVSCKASGYTFTTYAIHWVRQAPGQGLEWMGYINPSSGYTRYNPKFKGRVTMTRDKSTSTAYMELRSLRSDDTAVYYCWTGTRDYWGQGTTVTVSSGGGGDENQSPRSFQKKTRHYFIAAVERLWDYGMSSSPHVLRNRAQSGSVPQFKKVVFQEFTDGSFTQPLYRGELNEHLGLLGPYIRAEVEDNIMVTFRNQASRPYSFYSSLISYEEDQRQGAEPRKNFVKPNETKTYFWKVQHHMAPTKDEFDCKAWAYFSDVDLEKDVHSGLIGPLLVCHTNTLNPAHGRQVTVQEFALFFTIFDETKSWYFTENMERNCRAPCNIQMEDPTFKENYRFHAINGYIMDTLPGLVMAQDQRIRWYLLSMGSNENIHSIHFSGHVFTVRKKEEYKMALYNLYPGVFETVEMLPSKAGIWRVECLIGEHLHAGMSTLFLVYSNKCQTPLGMASGHIRDFQITASGQYGQWAPKLARLHYSGSINAWSTKEPFSWIKVDLLAPMIIHGIKTQGARQKFSSLYISQFIIMYSLDGKKWQTYRGNSTGTLMVFFGNVDSSGIKHNIFNPPIIARYIRLHPTHYSIRSTLRMELMGCDLNSCSMPLGMESKAISDAQITASSYFTNMFATWSPSKARLHLQGRSNAWRPQVNNPKEWLQVDFQKTMKVTGVTTQGVKSLLTSMYVKEFLISSSQDGHQWTLFFQNGKVKVFQGNQDSFTPVVNSLDPPLLTRYLRIHPQSWVHQIALRMEVLGCEAQDLY | 81.8% | 40.6% | – | – | – | 87% | 86.3% | 87% | 74.2% | 72.1% | 63% | 80.2% | 76.2% | 88.7% | 85.3% |
